B1: Hairpin Ribozyme (parent)
chain: GUCCUCUUUCACGUGCGCGUGAAAGAGAGAAGUGAACCAGAGAAACACACGUUGUGGUAUAUUACCUGGUA

Variants of: B1
Test: self-cleavage, relative activity (ratio to wild type); higher = more cleavage; co-transcriptional

| Variant | self-cleavage |
| --- | --- |
| C16U U53C | 0.564 |
| G1A A47G | 0.123 |
| A11C C37A | 0.37 |
| A11C U14G | 0.661 |
| C38U C66A | 0.167 |
| C16U A26U | 0.817 |
| U7G A11C | 0.481 |
| U62C U70C | 0.255 |
| G42A U60C | 0.371 |
| G19C G56A | 0.101 |
| A39C A47C | 0.207 |
| G1U G29U | 0.154 |
| C6G G68U | 0.156 |
| C6U G51A | 0.816 |
| C16U C66G | 0.228 |
| U33A G40A | 0.108 |
| A35C C38U | 0.312 |
| G19A C65G | 0.324 |
| G29A U67C | 0.106 |
| C18A A36U | 0.593 |
| C18U A41C | 1.09 |
| C16U G21U | 0.991 |
| C18A C65U | 0.254 |
| A41U U58A | 1.2 |

| Variant | self-cleavage |
| --- | --- |
| U60C A71C | 1.66 |
| U5C U67A | 0.0797 |
| U14A U58G | 0.505 |
| U14A A64C | 0.254 |
| U14A A64U | 0.171 |
| U7C U20A | 0.82 |
| A30U U52C | 0.135 |
| G32C A49C | 0.0996 |
| A24C A36G | 0.928 |
| C10U U70C | 0.637 |
| C10U U70A | 0.704 |
| G29A G42C | 0.0675 |
| A23U U63C | 0.182 |
| A11G G17C | 0.571 |
| A26U G69U | 0.225 |
| A31C G68U | 0.122 |
| G15U A41U | 1.41 |
| A41U U55G | 0.485 |
| G17C U20G | 0.904 |
| U52A U55A | 0.33 |
| U9G G56C | 0.0826 |
| G69U U70C | 0.304 |
| G17C G56A | 0.0625 |
| C4U G56C | 0.214 |

| Variant | self-cleavage |
| --- | --- |
| G15C U33C | 0.233 |
| G19C U58C | 0.815 |
| G17A A47U | 0.132 |
| A35G C48G | 0.213 |
| U14G A36C | 0.729 |
| C18U C46G | 0.145 |
| U52A U70A | 0.825 |
| G25U U52C | 0.626 |
| G19C G32A | 0.147 |
| G19A U53A | 0.919 |
| A22G G68U | 0.362 |
| C12U C65A | 0.88 |
| U14A A22C | 0.829 |
| U8G A35G | 0.667 |
| U14A G15U | 1.17 |
| G21U G57U | 0.224 |
| G40U U58G | 0.183 |
| C4U A26U | 0.156 |
| A24U G42U | 0.342 |
| G34A A43C | 0.229 |
| A45C U55C | 0.244 |
| G29A C50A | 0.168 |
| A11G C50U | 0.321 |
| A11G A22C | 0.779 |

| Variant | self-cleavage |
| --- | --- |
| G29A G34A | 0.201 |
| A23U G56A | 0.237 |
| C3G A26C | 0.276 |
| G40U C50A | 0.0746 |
| U14G U62G | 0.106 |
| C46G A71C | 0.211 |
| U8A C37A | 0.288 |
| A26U G40A | 0.175 |
| C18U G69U | 0.272 |
| A26U A41U | 0.989 |
| G34A U62G | 0.347 |
| A49G C65A | 0.42 |
| U55A A59G | 0.163 |
| G57C U58A | 0.222 |
| U2G G19C | 0.338 |
| G32A G34C | 1.23 |
| A23C A44G | 0.056 |
| A23C A44U | 0.129 |
| A61G A71C | 0.308 |
| G19C G21U | 0.718 |
| C4U G25C | 0.11 |
| U9C G29U | 0.179 |
| U20C U58C | 0.893 |
| C18U U63G | 0.278 |

| Variant | self-cleavage |
| --- | --- |
| C18U U63C | 0.18 |
| G51A G54U | 0.649 |
| G13A A35C | 0.739 |
| C46A G54C | 0.129 |
| G15A A41G | 0.92 |
| A61U C66A | 0.122 |
| U9G G42C | 0.239 |
| U9G G42A | 0.109 |
| U2A A36C | 0.143 |
| U9A G54U | 0.39 |
| U20G A41C | 1.13 |
| A41U C65A | 0.756 |
| G27A | 0.454 |
| A49C U67C | 0.0984 |
| C12U A28C | 0.437 |
| G21U U52A | 0.806 |
| G25A C48U | 0.135 |
| A39C G69C | 0.188 |
| C4A G29A | 0.119 |
| G40A A43G | 0.18 |
| G21U A41C | 1.12 |
| G15U G27U | 0.35 |
| U5C U9C | 0.457 |
| G54C C65A | 0.194 |

| Variant | self-cleavage |
| --- | --- |
| G69C | 0.289 |
| A45C U70A | 0.222 |
| A39G C66G | 0.0926 |
| U9C U33G | 0.154 |
| A43G C50U | 0.198 |
| U9A A59U | 0.14 |
| G15A G68A | 0.362 |
| G29U A64C | 0.142 |
| U33A G54C | 0.128 |
| A45G C50G | 0.109 |
| A49G U63C | 0.253 |
| A41U C66G | 0.172 |
| U33G C66A | 0.0596 |
| A22C A39C | 0.539 |
| G40C G42C | 0.107 |
| C4A G27A | 0.285 |
| U8G C50U | 0.327 |
| A11U C18U | 1.12 |
| A61C G69U | 0.145 |
| A11C G57A | 0.116 |
| G19C A49G | 0.366 |
| C6A C66A | 0.198 |
| G1A A64G | 0.187 |
| U2A U53C | 0.292 |

| Variant | self-cleavage |
| --- | --- |
| G32C U58A | 0.116 |
| U20G G27U | 0.154 |
| G21C G32U | 0.0815 |
| A31C A43U | 0.0953 |
| G27C U52A | 0.167 |
| C16U U20C | 0.86 |
| A11U U55C | 0.118 |
| C18G A30G | 0.131 |
| G1U C6G | 0.228 |
| C16U C38A | 0.172 |
| U33C A47U | 0.0811 |
| C18G A59U | 0.239 |
| C50U A59G | 0.204 |
| C12A G69C | 0.275 |
| U33A U62G | 0.174 |
| C38U A64U | 0.301 |
| A26G G68C | 0.312 |
| G42C G54U | 0.17 |
| A35C G56U | 0.153 |
| A44U C48U | 0.15 |
| U9C A41U | 0.966 |
| A45G C65U | 0.146 |
| G34A C65A | 1.26 |

— the RNAGym collection of RNA variant scans (doi:10.7554/elife.80360)
